Some results are limits rather than exact numbers.

The source of these data is patent US20170189507A1.

The assay concerns the target HLA-A*24 (human). Nature of the assay: UV-ligand exchange ELISA. (In general: ELISA stands for enzyme-linked immunosorbent assay.)
Molecule LYIDRPLPYL [peptide SEQ ID No 196] showed a peptide exchange yield of 50 to 75%.
On to NYYEVHKELF [peptide SEQ ID No 270], for which the peptide exchange yield lay within 50 to 75%.
The molecule VYQGHTALL [peptide SEQ ID No 277] displayed a peptide exchange yield greater than 75%.
In turn, RYAEEVGIF [peptide SEQ ID No 199] displayed a peptide exchange yield of 50 to 75%.
With TYKDEGNDYF [peptide SEQ ID No 209], the peptide exchange yield lay in the range of 50 to 75%.
For TYELRYFQI [peptide SEQ ID No 204] the value was greater than 75%; for YYEVHKELF [peptide SEQ ID No 175], greater than 75%.
The molecule LYITEPKTI [peptide SEQ ID No 287] had a peptide exchange yield of 50 to 75%.
PYRLIFEKF [peptide SEQ ID No 281]: the peptide exchange yield was 20 to 49%.
In the case of EYSLFPGQVVI [peptide SEQ ID No 197], the peptide exchange yield was in the range of 50 to 75%.
For VYVGGGQIIHL [peptide SEQ ID No 174] the value was 50 to 75%; for YYGPSLFLL [peptide SEQ ID No 200], 50 to 75%.
In turn, EYNQWFTKL [peptide SEQ ID No 176] displayed a peptide exchange yield of 50 to 75%.
In the case of VYWDSAGAAHF [peptide SEQ ID No 202], the peptide exchange yield is greater than 75%.
On to IYATEAHVF [peptide SEQ ID No 201], for which the peptide exchange yield was 50 to 75%.
For TFSVSSHLF [peptide SEQ ID No 222] the value was 50 to 75%; for AYVVFVSTL [peptide SEQ ID No 207], 20 to 49%.
YFIDSTNLKTHF [peptide SEQ ID No 269] showed a peptide exchange yield of 50 to 75%.
For the molecule HYPPVQVLF [peptide SEQ ID No 285], the peptide exchange yield lay in the range of 50 to 75%.
As for TYSVSFPMF [peptide SEQ ID No 195], the peptide exchange yield is greater than 75%.
In the case of YYKSTSSAF [peptide SEQ ID No 218], the peptide exchange yield lay within 50 to 75%.
The molecule QYLGQIQHI [peptide SEQ ID No 268] yielded a peptide exchange yield of 50 to 75%.
